Results on two molecules are retold here after article PMC9316817, “Brain Delivery of IGF1R5, a Single-Domain Antibody Targeting Insulin-like Growth Factor-1 Receptor” (Pharmaceutics, 2022).

In experiment [1] the target is mouse IGF1R ectodomain (mouse) (UniProt Q60751). The experiment in a line: SPR; Biacore 3000, multi-cycle kinetics; IGF1R ectodomains amine coupled on CM5 chips (about 1500-2000 RU); VHHs in flow at 20 µL/min, 300 s association, 300 s dissociation; 0.25-10 nM (IGF1R5), 1-25 nM (IGF1R5-H2); HBS-EP pH 7.4, 25 °C; 1:1 binding model. A general note: Surface plasmon resonance follows binding to a sensor surface in real time, without labels.
mouse IGF1R ectodomain (mouse), sequence (Q60751 742-936): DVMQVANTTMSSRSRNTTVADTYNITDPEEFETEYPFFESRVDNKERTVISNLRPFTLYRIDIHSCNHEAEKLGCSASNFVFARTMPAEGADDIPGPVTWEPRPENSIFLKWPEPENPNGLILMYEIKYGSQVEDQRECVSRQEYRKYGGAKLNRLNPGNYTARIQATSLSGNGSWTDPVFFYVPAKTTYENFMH

For experiment [2], the target named is Human IGF1R ectodomain (UniProt P08069). The description is as above.
Human IGF1R ectodomain, sequence (P08069 741-935): as the sequence (Q60751 742-936) above, with V19A, F31L, P185Q, T189G, M194I counted along it
Experiment [3] deals with T1, rat IGF1R ectodomain (aa31-936) (Rattus norvegicus, UniProt P24062).
T1 construct: insulin-like growth factor-1 receptor, rat, ectodomain, aa31-936; source: NRC Montreal
T1 sequence (P24062 31-936): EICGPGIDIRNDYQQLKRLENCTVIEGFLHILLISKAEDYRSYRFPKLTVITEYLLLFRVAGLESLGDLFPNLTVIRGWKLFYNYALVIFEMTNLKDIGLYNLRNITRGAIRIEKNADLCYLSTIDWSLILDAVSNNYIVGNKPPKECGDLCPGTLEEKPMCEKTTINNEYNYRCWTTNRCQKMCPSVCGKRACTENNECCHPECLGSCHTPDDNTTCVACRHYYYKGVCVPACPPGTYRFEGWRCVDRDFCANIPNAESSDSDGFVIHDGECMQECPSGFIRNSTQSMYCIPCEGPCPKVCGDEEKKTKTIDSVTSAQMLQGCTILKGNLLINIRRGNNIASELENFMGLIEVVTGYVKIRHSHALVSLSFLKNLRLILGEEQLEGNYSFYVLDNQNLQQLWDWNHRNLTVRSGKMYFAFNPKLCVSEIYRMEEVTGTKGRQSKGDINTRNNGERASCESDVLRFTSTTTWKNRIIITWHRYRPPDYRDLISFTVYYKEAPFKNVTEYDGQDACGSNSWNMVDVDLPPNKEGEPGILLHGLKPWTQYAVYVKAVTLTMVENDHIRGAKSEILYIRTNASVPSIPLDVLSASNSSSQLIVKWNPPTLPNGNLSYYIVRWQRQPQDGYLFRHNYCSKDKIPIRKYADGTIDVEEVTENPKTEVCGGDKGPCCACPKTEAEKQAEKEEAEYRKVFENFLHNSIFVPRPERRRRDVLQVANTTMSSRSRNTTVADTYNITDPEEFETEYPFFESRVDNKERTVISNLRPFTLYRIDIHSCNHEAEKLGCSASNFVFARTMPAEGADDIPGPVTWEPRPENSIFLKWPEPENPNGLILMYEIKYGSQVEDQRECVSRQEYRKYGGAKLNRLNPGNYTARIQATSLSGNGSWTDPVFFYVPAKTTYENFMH
Described as above. As to conditions: both partners purified.

The target of experiment [4] is mouse IGF1R ectodomain (mouse) (UniProt Q60751). Kind of experiment: SPR; acidic pH: HBS-EP MES buffer pH 5.6, 37 °C; IGF1R ectodomains amine coupled on CM5 chips; VHHs in flow, 0.25-10 nM (IGF1R5), 1-50 nM (IGF1R5-H2); 1:1 binding model.
The target in experiment [5] is Human IGF1R ectodomain (UniProt P08069). Described as above.
For experiment [6], the target named is T2, rhesus IGF1R ectodomain (aa31-932) (Macaca mulatta, UniProt I2CWY3).
T2 construct: insulin-like growth factor-1 receptor, rhesus, ectodomain, aa31-932; source: NRC Montreal
T2 sequence (I2CWY3 entry or part of it): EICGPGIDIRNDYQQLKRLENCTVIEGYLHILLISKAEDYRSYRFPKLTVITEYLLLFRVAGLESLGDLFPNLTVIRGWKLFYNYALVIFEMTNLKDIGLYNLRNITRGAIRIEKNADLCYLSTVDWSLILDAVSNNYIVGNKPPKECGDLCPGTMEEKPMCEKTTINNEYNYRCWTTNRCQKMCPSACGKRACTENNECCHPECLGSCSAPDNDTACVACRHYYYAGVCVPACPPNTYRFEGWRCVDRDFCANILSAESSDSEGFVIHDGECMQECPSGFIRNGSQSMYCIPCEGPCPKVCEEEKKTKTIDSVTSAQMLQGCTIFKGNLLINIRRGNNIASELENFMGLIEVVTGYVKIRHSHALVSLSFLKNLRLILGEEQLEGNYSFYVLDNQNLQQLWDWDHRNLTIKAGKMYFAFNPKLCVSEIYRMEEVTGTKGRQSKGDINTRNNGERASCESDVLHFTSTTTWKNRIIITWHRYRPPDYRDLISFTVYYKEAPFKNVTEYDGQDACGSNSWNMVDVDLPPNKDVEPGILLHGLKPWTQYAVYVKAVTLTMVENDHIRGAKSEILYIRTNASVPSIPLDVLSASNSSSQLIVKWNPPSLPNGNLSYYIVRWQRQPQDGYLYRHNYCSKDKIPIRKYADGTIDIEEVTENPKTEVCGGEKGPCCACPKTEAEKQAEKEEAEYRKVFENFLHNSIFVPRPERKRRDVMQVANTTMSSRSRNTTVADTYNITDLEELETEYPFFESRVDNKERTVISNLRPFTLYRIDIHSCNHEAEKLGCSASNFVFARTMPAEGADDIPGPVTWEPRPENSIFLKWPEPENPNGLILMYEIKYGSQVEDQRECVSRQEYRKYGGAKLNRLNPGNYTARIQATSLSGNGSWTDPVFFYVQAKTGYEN
Kind of experiment: SPR; Biacore T200, single-cycle kinetics (rhesus IGF1R); IGF1R ectodomain amine coupled on CM5 chip; VHHs in flow at 40 µL/min, 180 s association, 600 s dissociation; 0.25-10 nM (IGF1R5), 1-25 nM (IGF1R5-H2); HBS-EP pH 7.4, 25 °C; 1:1 binding model. As to conditions: both partners purified.

B1: IGF1R5-H2, humanized variant of the IGF1R5 single-domain antibody (VHH)
VHH: QVQLVESGGGLVQPGGSLRLSCAASGRTIDNYAMAWVRQAPGKGLEWVATIDWGDGGTRYANSVKGRFTISRDNSKNTMYLQMNSLRAEDTAVYYCAMARQSRVNLDVARYDYWGQGTLVTVSS
notes: CDRs of m1 grafted on a human VH3 germline framework, 4 back-mutations in the Vernier zone, no camelizing back-mutations in FR2, CDR2 point mutation A57T; Kabat numbering; Changes are stated against the camelid IGF1R5; also called humanized IGF1R5-H2; source: produced and purified as described for the llama sdAbs (TG1 Escherichia coli, HiTrap Chelating HP; preparative SEC just before SPR)
As usually defined, the Kd is the free concentration of one partner at which half of the binding sites on the other are occupied at equilibrium, for simple one-to-one binding. Higher therefore signals a looser complex. The term koff denotes the rate constant with which the complex falls apart. Lower therefore signals a long-lived complex. Usually kon stands for the rate constant with which the complex forms. The low end stands for slower complex formation, the high end for faster complex formation. B1: the Kd in experiment [1] came out at 9.1 nM; in the experiment with Human IGF1R ectodomain [2] it was 7.6 nM; in experiment [3], 11 nM; in experiment [4] it was 150 nM; in the experiment with Human IGF1R ectodomain [5] it was 160 nM; in experiment [6] it was 17 nM. For the same molecule, the off-rate (koff) turned out to be 0.0021 s⁻¹ in experiment [1]; 0.0029 s⁻¹ with Human IGF1R ectodomain [2]; 0.0026 s⁻¹ in experiment [3]; 0.043 s⁻¹ in experiment [4]; 0.034 s⁻¹ in the experiment with Human IGF1R ectodomain [5]; 0.0038 s⁻¹ in experiment [6]. In addition, the kon in experiment [1] is 230000 M⁻¹ s⁻¹; with Human IGF1R ectodomain [2] it was 380000 M⁻¹ s⁻¹; in experiment [3] it was 230000 M⁻¹ s⁻¹; in experiment [4], 290000 M⁻¹ s⁻¹; with Human IGF1R ectodomain [5] it was 210000 M⁻¹ s⁻¹; in experiment [6], 230000 M⁻¹ s⁻¹.

B2: IGF1R5 single-domain antibody (camelid VHH against insulin-like growth factor-1 receptor) (VHH)
VHH: QVKLEESGGGLVQAGGSLRLSCAASGRTIDNYAMAWSRQAPGKDREFVATIDWGDGGARYANSVKGRFTISRDNAKGTMYLQMNNLEPEDTAVYSCAMARQSRVNLDVARYDYWGQGTQVTVSS
notes: Monomeric VHH fraction isolated by SEC was used for SPR; Isolated from a phage display library of a llama immunized with the extracellular domain of human IGF1R (933 amino acids); also called wild-type IGF1R5; IGF1R5 sdAb; source: TG1 Escherichia coli, purified (HiTrap Chelating HP; preparative SEC on Superdex S75 Increase just before SPR)
Take B2: the Kd in experiment [1] came out at 1.1 nM; with Human IGF1R ectodomain [2], 0.64 nM; in experiment [3], 1.1 nM; in experiment [4], 4.8 nM; in the experiment with Human IGF1R ectodomain [5], 4 nM; in experiment [6] it was 0.4 nM. Further, the koff in experiment [1] is 0.0003 s⁻¹; in the experiment with Human IGF1R ectodomain [2] it was 0.00034 s⁻¹; in experiment [3], 0.00038 s⁻¹; in experiment [4], 0.0028 s⁻¹; with Human IGF1R ectodomain [5] it was 0.0028 s⁻¹; in experiment [6], 0.00059 s⁻¹. In addition, the kon came out at 260000 M⁻¹ s⁻¹ in experiment [1]; 530000 M⁻¹ s⁻¹ in the experiment with Human IGF1R ectodomain [2]; 340000 M⁻¹ s⁻¹ in experiment [3]; 590000 M⁻¹ s⁻¹ in experiment [4]; 690000 M⁻¹ s⁻¹ in the experiment with Human IGF1R ectodomain [5]; 1.5e+06 M⁻¹ s⁻¹ in experiment [6].
